Measured values: patent publication US20190389958A1 (MSM PROTEIN TECHNOLOGIES, published 2019)

B1: V62.1-R108H-m47-m38 (antibody, human IgG1, V domains shown)
VH: EVQLLESGGGLVQPGGSLRLSCAASGFTFSSYAMSWVRQAPGKGLEWVSAISGSGGTRYADSVKGRFTISRDNSKNTLYLQMNSLRAEDTAVYYCARQGKTRVYGYHWHGYGSTHALDYWGQGTLVTVSS
VL: EIVLTQSPGTLSLSPGERATLSCRASQSVSSSYLAWYQQKPGQAPRLLIYGASSRATGIPDRFSGSGSGTDFTLTISRLEPEDFAVYYCQQWSSDSVTFGQGTKVEIKR
notes: Tested as an IgG (human IgG1 format); also called V62.1-H-m47-m38; IgG1 62.1-R108H-m47-m38
B2: V62.1-R108H (antibody, human IgG1, V domains shown)
VH: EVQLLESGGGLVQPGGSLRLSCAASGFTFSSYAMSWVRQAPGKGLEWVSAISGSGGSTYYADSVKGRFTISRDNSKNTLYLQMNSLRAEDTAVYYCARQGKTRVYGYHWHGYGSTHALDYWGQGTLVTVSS
VL: EIVLTQSPGTLSLSPGERATLSCRASQSVSSSYLAWYQQKPGQAPRLLIYGASSRATGIPDRFSGSGSGTDFTLTISRLEPEDFAVYYCQQSDYSYPFTFGQGTKVEIKR
notes: Tested as an IgG (human IgG1 format); also called IgG1 V62.1 R108H
B3: V62.1 (antibody, human IgG1, V domains shown)
VH: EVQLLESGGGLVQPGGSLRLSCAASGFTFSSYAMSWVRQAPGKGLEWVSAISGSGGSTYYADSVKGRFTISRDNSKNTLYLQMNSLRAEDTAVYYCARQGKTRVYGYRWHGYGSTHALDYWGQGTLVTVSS
VL: EIVLTQSPGTLSLSPGERATLSCRASQSVSSSYLAWYQQKPGQAPRLLIYGASSRATGIPDRFSGSGSGTDFTLTISRLEPEDFAVYYCQQSDYSYPFTFGQGTKVEIKR
notes: Tested as an IgG (human IgG1 format; DP47 heavy and DPK22 kappa light frameworks) made in CHO-3E7 cells; also called IgG V62.1
B4: V62.1-R108H-m80 (antibody, human IgG1, V domains shown)
VH: EVQLLESGGGLVQPGGSLRLSCAASGFTISPYSITWVRQAPGKGLEWVSQINSYNGKTYYADSVKGRFTISRDNSKNTLYLQMNSLRAEDTAVYYCARQGKTRVYGYHWHGYGSTHALDYWGQGTLVTVSS
VL: EIVLTQSPGTLSLSPGERATLSCRASQSVSSSYLAWYQQKPGQAPRLLIYGASSRATGIPDRFSGSGSGTDFTLTISRLEPEDFAVYYCQQSDYSYPFTFGQGTKVEIKR
notes: Tested as an IgG (human IgG1 format); also called V62.1-H-m80; V62.1-R108H-m80-Wt

Columns and labels:
human CXCR4 [1] = target: T1, human CXCR4 (human, UniProt P61073 1-352); assay: cell-based or functional assay
human CXCR4 [2] = target: T1, human CXCR4; assay: flow cytometry, IgG 100 nM, Cf2Th-hCXCR4 cells
Protocol: (§1) Cells over-expressing different GPCRs other than CXCR4 and several lines transfected to over-express CXCR4 (R1610-hCXCR4, Cf2Th-hCXCR4 and CHO-hCXCR4) were compared. Cultures were incubated with a test IgG at 100 nM in FACS buffer for 40 min at 4° C. Thereafter, cells were washed twice, stained with anti-human-Fc antibody-PE conjugate (Jackson Immunoresearch Laboratories Inc., West Grove, Pa.), washed twice in FACS buffer and then transferred to FIX buffer. Fluorescence intensities were measured by GUAVA PCA-96 at 425V (in triplicate).

hCCR5 = target: T2, hCCR5 (human, UniProt P51681 1-352); assay: flow cytometry, IgG 100 nM, cells over-expressing hCCR5
T2 construct: whole, on cells
Protocol: as §1
(§2) The expression of GPCRs other than CXCR4 was confirmed using commercially available antibodies (positive controls). For example, a commercial anti-CXCR1 antibody was used as a positive control for confirming the expression of CXCR1 on the CXCR1-transfected CHO cells.

hCCR6 = target: T3, hCCR6 (human, UniProt P51684 1-374); assay: flow cytometry, IgG 100 nM, cells over-expressing hCCR6
T3 construct: whole, on cells
T3 sequence (looked up): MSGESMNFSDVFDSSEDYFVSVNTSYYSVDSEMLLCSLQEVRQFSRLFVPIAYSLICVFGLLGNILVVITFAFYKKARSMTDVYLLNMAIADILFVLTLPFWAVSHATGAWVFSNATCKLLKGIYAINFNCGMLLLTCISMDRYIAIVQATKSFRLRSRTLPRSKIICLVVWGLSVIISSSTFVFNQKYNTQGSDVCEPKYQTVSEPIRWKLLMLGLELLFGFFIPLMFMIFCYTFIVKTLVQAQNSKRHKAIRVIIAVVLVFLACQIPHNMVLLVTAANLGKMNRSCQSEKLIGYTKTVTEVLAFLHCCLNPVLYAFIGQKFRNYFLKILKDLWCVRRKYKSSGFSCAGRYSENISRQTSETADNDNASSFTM
Protocol: as §1, §2

hCCR7 = target: T4, hCCR7 (human, UniProt P32248 25-378); assay: flow cytometry, IgG 100 nM, cells over-expressing hCCR7
T4 construct: whole, on cells
T4 sequence (looked up): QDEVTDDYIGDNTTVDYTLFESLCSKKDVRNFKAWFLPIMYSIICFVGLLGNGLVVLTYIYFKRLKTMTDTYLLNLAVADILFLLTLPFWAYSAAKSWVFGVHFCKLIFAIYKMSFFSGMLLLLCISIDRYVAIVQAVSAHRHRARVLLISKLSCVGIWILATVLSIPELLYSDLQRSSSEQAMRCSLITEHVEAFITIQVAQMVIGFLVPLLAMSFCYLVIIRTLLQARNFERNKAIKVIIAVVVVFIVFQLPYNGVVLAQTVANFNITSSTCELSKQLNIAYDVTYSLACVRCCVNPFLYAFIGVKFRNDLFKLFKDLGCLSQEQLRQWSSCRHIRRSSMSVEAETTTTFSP
Protocol: as §1, §2

hCCR10 = target: T5, hCCR10 (human, UniProt P46092 1-362); assay: flow cytometry, IgG 100 nM, cells over-expressing hCCR10
T5 construct: whole, on cells
T5 sequence (looked up): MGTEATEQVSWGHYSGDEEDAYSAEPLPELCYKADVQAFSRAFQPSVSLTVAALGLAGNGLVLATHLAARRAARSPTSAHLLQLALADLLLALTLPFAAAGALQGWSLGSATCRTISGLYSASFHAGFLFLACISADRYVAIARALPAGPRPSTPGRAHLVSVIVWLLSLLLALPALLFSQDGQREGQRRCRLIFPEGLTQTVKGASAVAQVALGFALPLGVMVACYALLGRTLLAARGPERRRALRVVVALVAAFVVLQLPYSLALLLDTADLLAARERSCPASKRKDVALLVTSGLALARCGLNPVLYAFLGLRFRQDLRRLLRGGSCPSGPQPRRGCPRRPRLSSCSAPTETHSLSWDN
Protocol: as §1, §2

hCXCR3 = target: T6, hCXCR3 (human, UniProt P49682 1-368); assay: flow cytometry, IgG 100 nM, cells over-expressing hCXCR3
T6 construct: whole, on cells
T6 sequence (looked up): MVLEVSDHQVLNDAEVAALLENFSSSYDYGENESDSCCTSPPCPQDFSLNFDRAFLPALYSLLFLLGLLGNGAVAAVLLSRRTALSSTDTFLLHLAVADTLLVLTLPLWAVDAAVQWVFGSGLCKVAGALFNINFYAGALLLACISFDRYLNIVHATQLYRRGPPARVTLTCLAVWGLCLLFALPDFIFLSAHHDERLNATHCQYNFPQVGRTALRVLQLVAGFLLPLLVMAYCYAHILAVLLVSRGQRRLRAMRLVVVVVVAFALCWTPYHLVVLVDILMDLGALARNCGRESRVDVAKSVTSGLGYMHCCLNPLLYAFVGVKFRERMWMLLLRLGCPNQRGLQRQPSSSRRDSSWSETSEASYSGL
Protocol: as §1, §2

hCXCR6 = target: T7, hCXCR6 (human, UniProt O00574 1-342); assay: flow cytometry, IgG 100 nM, cells over-expressing hCXCR6
T7 construct: whole, on cells
Protocol: as §1, §2

human CXCR4 [3] = target: T1, human CXCR4; assay: flow cytometry on Cf2-Th cells transfected with human CXCR4, IgG1 format
Protocol: A typical protocol for the fluorescent flow cytometry-based assay was as follows. Ten microliter of a purified test IgG solution or buffer as a control were added to 10 microliter of a suspension containing approximately 30,000 Cf2-Th cells transfected to express human CXCR4. After incubation on ice for 40 min, cells were washed with FACS buffer (phosphate-buffered saline (PBS), pH7.4; 2% fetal calf serum, 0.1% sodium azide) to remove unbound antibodies. Ten microliter of a solution of phycoerythrin (PE)-conjugated mouse anti-human Fc monoclonal antibody (1/20 dilution; catalog number 12-4998-82, eBioscience Inc., San Diego, Calif.) were then added to the cells, and, after a 30-min incubation on ice, cells were washed twice and then formalin-fixed (FIX buffer: PBS, pH7.4; 0.5% formaldehyde). Fixed samples were analysed by fluorescent flow cytometry using a Guava-PCA96 instrument (EMD Millipore Chemicals, Merck KGaA, Darmstadt, Germany).

T1 sequence (P61073 whole entry): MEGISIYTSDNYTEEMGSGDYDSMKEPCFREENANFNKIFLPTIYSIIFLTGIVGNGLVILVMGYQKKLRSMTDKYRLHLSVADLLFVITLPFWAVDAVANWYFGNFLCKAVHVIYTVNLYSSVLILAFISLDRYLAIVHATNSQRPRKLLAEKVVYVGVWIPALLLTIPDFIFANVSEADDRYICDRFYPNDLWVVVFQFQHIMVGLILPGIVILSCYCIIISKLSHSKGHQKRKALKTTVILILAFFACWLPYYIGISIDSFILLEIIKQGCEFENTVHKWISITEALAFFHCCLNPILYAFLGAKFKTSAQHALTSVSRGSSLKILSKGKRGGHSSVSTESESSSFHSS
T7 sequence (O00574 whole entry): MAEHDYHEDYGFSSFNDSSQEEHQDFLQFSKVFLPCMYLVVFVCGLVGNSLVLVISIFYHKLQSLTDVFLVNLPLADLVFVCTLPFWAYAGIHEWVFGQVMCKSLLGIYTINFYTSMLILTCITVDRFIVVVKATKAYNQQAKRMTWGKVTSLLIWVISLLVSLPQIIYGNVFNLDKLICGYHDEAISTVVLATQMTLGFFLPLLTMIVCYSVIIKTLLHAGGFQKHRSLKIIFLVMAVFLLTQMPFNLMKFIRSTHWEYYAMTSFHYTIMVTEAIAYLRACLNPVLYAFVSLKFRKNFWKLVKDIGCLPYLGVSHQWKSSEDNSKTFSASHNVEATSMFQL
T2 sequence (P51681 whole entry): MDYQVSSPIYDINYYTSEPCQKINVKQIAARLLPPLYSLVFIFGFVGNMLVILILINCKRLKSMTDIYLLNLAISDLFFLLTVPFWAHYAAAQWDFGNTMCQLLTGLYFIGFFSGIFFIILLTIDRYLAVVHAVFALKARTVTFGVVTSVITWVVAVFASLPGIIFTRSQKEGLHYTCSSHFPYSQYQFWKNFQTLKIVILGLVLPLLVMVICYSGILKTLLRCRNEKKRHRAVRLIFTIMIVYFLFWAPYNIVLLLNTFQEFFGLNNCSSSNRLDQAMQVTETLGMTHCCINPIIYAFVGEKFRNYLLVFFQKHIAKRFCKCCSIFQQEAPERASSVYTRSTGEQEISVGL

Binder | % Inhibition of SDF-1alpha-induced chemotaxis of U937 cells (IgG at 100 nM) (human CXCR4 [1]) [%] | MFI (human CXCR4 [2]) | MFI (hCCR5) | MFI (hCCR6) | MFI (hCCR7) | MFI (hCCR10) | MFI (hCXCR3) | MFI (hCXCR6) | EC50 (human CXCR4 [3]) [nM]
B1 | 78 | 2350 | 2 | 2 | 2 | 2 | 2 | 2 | < 10
B2 | 69 | 861 | 3 | 3 | 4 | 3 | 3 | 3 | < 10
B3 | 76 | 1270 | 4 | 3 | 3 | 4 | 3 | 3 | < 10
B4 | 75 | 3870 | 8 | 10 | – | 10 | 2 | 7 | < 10
